What was measured:
[1] = biological target: pertussis toxin holotoxin (Bordetella pertussis) (UniProt P04977); experiment: cell-based or functional assay
[2] = biological target: pertussis toxin holotoxin (Bordetella pertussis) (UniProt P04977); experiment: competition ELISA (Friguet), 5 nM antibody, soluble PT
[3] = biological target: pertussis toxin holotoxin (Bordetella pertussis), P04977; settings: remark: other sources report otherwise

Question: 11E6 scAb (scFv) was tested. Which In Vitro Neutralization (nM), minimum protective concentration, CHO clustering assay [1] did it give?
Answer: 377 nM

Question: What about the Kd [2] of the same molecule?
Answer: 19 nM

Question: For 1B7 F(ab)2, which In Vitro Neutralization (nM), minimum protective concentration, CHO clustering assay [1] is on record?
Answer: 15 nM

Question: Which In Vitro Neutralization (nM), minimum protective concentration, CHO clustering assay [1] does the source give for 11E6 Fab here?
Answer: 42 nM

Question: What about the Kd [2] of the same molecule?
Answer: 9.3 nM

B1: 1B7 Fab (Fab)
chain: DIQMTQSPALMSASPGEKVTMTCSASSSVSFMYWYQQKPRSSPKPWIYLTSNLPSGVPARFSGSGSGTSYSLTISSMEAEDAATYYCQQWSSHPPTFGSGTKLEIKRGGGGSGGGGSGGGGSGGGGSEVQLQQSGSELVRPGASVKLSCKASGYKFTSYWMHWVKQRPGQGLEWIGNIFPGSGSTNYDEKFNSKATLTVDTSSNTAYMQLSSLTSEDSAVYYCTRWLSGAYFDYWGQGTTLTVSSASGA
Question: How did the Kd [3] turn out when B1 was run?
Answer: 2 nM

Reference: patent US20120244144A1 (University of Texas, published 2012)
